By Kd is commonly meant the equilibrium constant for the complex coming apart.

B1: yeast-displayed wild-type sBCMA (human BCMA extracellular domain, Met1-Ala54) [human] / human APRIL (a proliferation-inducing ligand) [human] (parent)
chain 1: MLQMAGQCSQNEYFDSLLHACIPCQLRCSSNTPPLTCQRYCNASVTNSVKGTNA
chain 2: AVLTQKQKKQHSVLHLVPINATSKDDSDVTEVMWQPALRRGRGLQAQGYGVRIQDAGVYLLYSQVLFQDVTFTMGQVVSREGQGRQETLFRCIRSMPSHPDRAYNSCYSAGVFHLHQGDILSVIIPRARAKLNLSPHGTFLGFVKL

One assay covers variants of B1. The assay can be described thus: flow cytometry binding of yeast-displayed sBCMA. Particulars: with human APRIL (a proliferation-inducing ligand) [human]; parent: 262. A general note: Flow cytometry measures light scatter and fluorescence of single cells or particles in a stream.
As to chain 1 S16G T36A, the screen value is 102.

On to chain 1 S16G H19Y T36A, for which the screen value is 325.

Turning to chain 1 S9P N11D S16G H19Y T36A N47S N53D, the screen value turned out to be 1310.

The next assay covers variants of B1. Nature of the assay: flow cytometry binding curve of yeast-displayed sBCMA. Particulars: with human APRIL (a proliferation-inducing ligand) [human].
Turning to chain 1 S16G H19Y T36A, the Kd was 0.018 nM and the screen value came to 5860 A.U.

On to chain 1 S16G H19Y T36A N53D, for which the Kd came to 0.008 nM.

For the origin of these results see article PMC9428257.
